Test results published in patent publication US11732029B2, “Methods and compositions for the treatment of wounds” (The University of Chicago, priority 2017, dated 2023).
No end group written: not given here.

Tests used:
[1] = system: full-thickness back-skin wounds in db/db diabetic mice; assay: Retention of VEGF-A165 at the wound site; format: in vivo; conditions: db/db mouse; fibrin matrix with 200 ng VEGF-A165/wound; 3 days after treatment; vs without peptide
Experimental: Retention assays were performed as previously reported^1. Briefly, C57BLKS/J-m/Lepr db (db/db) mice ages 10 to 11 wks were used. Their backs were shaved and four full-thickness punch-biopsy wounds (6 mm in diameter) were created in each mouse. Directly after, fibrin matrices [80 μL total, fibrinogen (10 mg/mL), 2 U/mL human thrombin, 4 U/mL factor XIII, 5 mM calcium chloride, 2 μM α2PI1-8-α33043-3067, 200 ng of recombinant human VEGF-A165] were polymerized on the wounds. To avoid drying of the matrices, the wounds were covered with non-adhering dressing (Adaptic, Johnson & Johnson), and then with adhesive film dressing (Hydrofilm, Hartmann). After 3 or 6 days, mice were sacrificed. The wounds were punched again, in order to recover the fibrinous matrices. Moreover, the tissue surrounding the wounds (2 mm beyond the wound margin) was removed. The tissue was transferred in 0.9 mL of tissue T-PER Tissue Protein Extraction Reagent (Thermo Scientific) containing 1 mg/mL of collagenase IV (Sigma-Aldrich), and homogenized with a tissue homogenizer. […] Recombinant human VEGF-A165 remaining in the fibrinous matrix and in the tissue surrounding the wound were quantified by ELISA (DuoSet, R&D Systems), using 200 ng of recombinant human VEGF-A165 as 100%.

[2] = system: GF binding to laminin; assay: Inhibition of laminin-GF binding by heparin (ELISA); conditions: heparin added in excess (10 μM); VEGF-A165, PlGF-2 or FGF-2
Experimental: ELISA plates (med-binding) were coated with 10 μg/mL laminin isoforms (−111, −211, −221, −411, −421, −511, and −521) in PBS for 2 hrs at 37° C. Then, wells were blocked with 2% BSA-containing PBS-T and further incubated with 1 μg/mL each of VEGF-A165, PlGF-2, or FGF-2 for 60 min at RT with 10 μM heparin. Next, the wells were incubated with biotinylated anti-VEGF, anti-PlGF, or anti-FGF-2 antibodies (R&D Systems). The antibodies were detected by streptavidin-HRP (R&D Systems).

[3] = molecular target: vWF binding to the GFs (Homo sapiens, UniProt P04275); assay: Inhibition of vWF-GF binding by heparin (ELISA); conditions: excess (10 μM) heparin; VEGF-A165, PlGF-2 or FGF-2
Experimental: ELISA plates (med-binding) were coated with 10 μg/mL vWF. Then, wells were blocked with 2% BSA-containing PBS-T and further incubated with 1 μg/mL each of VEGF-A, PlGF-2, or FGF-2 for 60 min at room temperature (RT) with 10 μM heparin. Next, the wells were incubated with biotinylated anti-VEGF-A, anti-PlGF, or anti-FGF-2 antibodies (R & D Systems). The antibodies were detected by streptavidin-HRP (R & D Systems). Color development and the absorbance measurement were done as described above.

[4] = molecular target: T1, CXCL-12α (Homo sapiens, UniProt P48061); assay: Laminin binding to recombinant GFs (ELISA); conditions: ELISA A450 nm; signals greater than 0.1 = binding
T1 construct: All GFs and chemokines were purchased in their mature forms; purchased PeproTech; host or cells: Escherichia coli
Experimental: (§1) ELISA tests were performed as previously reported. In brief, ELISA plates (med-binding, Greiner Bio-One) were coated with 50 nM GFs at 37° C. for more than 2 hrs. After blocking with 2% BSA solution containing PBS and 0.05% Tween 20 (PBS-T), 10 nM recombinant human laminin isoforms (−111, −211, −332, −411, −421, −511, and −521) (>95% purity tested by SDS-PAGE, BioLamina) were added. Bound laminin was detected with rabbit anti-human laminin γ1 chain antibody (1:1000 dilution, Assay biotech) or rabbit anti-human laminin α3 chain antibody (1:1000 dilution, Assay biotech). After incubation with biotinylated anti-rabbit antibody for 60 min at room temperature (RT), HRP conjugated streptavidin (Jackson ImmunoResearch) was added. After 60 min of incubation at RT, 50 μL TMB substrate (Sigma-Aldrich) was added. The reactions were stopped by adding 25 μL of 2N H2SO4. Subsequently, the absorbance at 450 nm was measured with a reference of 570 nm.

[5] = molecular target: T2, CXCL-11 (Homo sapiens, UniProt O14625); assay: Laminin binding to recombinant GFs (ELISA); conditions: ELISA A450 nm; signals greater than 0.1 = binding
T2 construct: All growth factors (GFs) and chemokines were purchased in their mature forms; purchased PeproTech; host or cells: Escherichia coli
T2 sequence (O14625 22-94): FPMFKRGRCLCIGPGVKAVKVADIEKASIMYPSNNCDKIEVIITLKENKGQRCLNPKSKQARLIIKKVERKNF
Experimental: as §1

[6] = molecular target: T3, PlGF-2 (Homo sapiens, UniProt P49763); assay: Surface plasmon resonance, laminin against GF; set-up: All GFs and chemokines were purchased in their mature forms; purchased PeproTech; host or cells: Escherichia coli; conditions: SPR; laminin protein immobilized on chip, GF flowed; Langmuir binding kinetics
T3 sequence (P49763 19-170 isoform P49763-3 limits assumed): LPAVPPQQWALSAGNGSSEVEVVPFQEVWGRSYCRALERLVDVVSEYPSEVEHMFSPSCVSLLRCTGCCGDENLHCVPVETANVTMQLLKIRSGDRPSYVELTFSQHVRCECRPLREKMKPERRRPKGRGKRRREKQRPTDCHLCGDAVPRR
Experimental: (§2) SPR analysis was performed as described previously^2. In brief, measurements were made with a Biacore 3000 SPR system (GE Healthcare). Laminin-521 or laminin α32928-3150 was immobilized via amine coupling on a C1 chip (GE Healthcare) for ˜2000 or ˜1000 resonance units (RU), respectively, according to the manufacturer's instructions. VEGF-A165, PDGF-BB, or PlGF-2 was flowed at increasing concentrations in the running buffer at 20 μL/min. The sensor chip was regenerated with 50 mM NaOH for every cycle. Specific bindings of GFs to laminin were calculated by comparison to a non-functionalized channel used as a reference. Experimental results were fitted with Langmuir binding kinetics using BIAevaluation software (GE Healthcare).

[7] = molecular target: T4, VEGF-A165 (Homo sapiens, UniProt P15692); assay: Surface plasmon resonance, laminin against GF; conditions: SPR; laminin protein immobilized on chip, GF flowed; Langmuir binding kinetics
T4 construct: All growth factors (GFs) and chemokines were purchased in their mature forms; purchased PeproTech; host or cells: Escherichia coli
T4 sequence (P15692 27-191 isoform P15692-4 limits assumed): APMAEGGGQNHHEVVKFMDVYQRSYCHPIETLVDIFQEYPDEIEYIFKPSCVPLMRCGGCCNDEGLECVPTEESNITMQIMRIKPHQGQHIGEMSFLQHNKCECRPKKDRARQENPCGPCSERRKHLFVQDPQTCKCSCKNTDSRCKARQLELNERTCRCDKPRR
Experimental: as §2

[8] = molecular target: T5, PDGF-BB (Homo sapiens, UniProt P01127); assay: Surface plasmon resonance, laminin against GF; conditions: SPR; laminin protein immobilized on chip, GF flowed; Langmuir binding kinetics
T5 construct: All growth factors (GFs) and chemokines were purchased in their mature forms; purchased PeproTech; host or cells: Escherichia coli
Experimental: as §2

[9] = molecular target: FGF-2 (Homo sapiens, UniProt P09038); assay: Recombinant GF binding to the vWF recombinant protein and A1 HBD peptide (ELISA); set-up: All growth factors (GFs) and chemokines were purchased in their mature forms; purchased PeproTech; host or cells: Escherichia coli; conditions: plate coated with vWF protein, A1 domain or HBD peptide, 1 μg/mL GF
Experimental: (§3) ELISA tests were performed as described above. In brief, ELISA plates were coated with 1 μg/mL of FL-vWF (WT or R1341Q), 1 μg/mL of vWF A1 recombinant protein (U-Protein Express) or 1 μg/mL of vWF A1 HBD peptide (sequence […], (SEQ ID NO:50) chemically synthesized by Genscript) at 37° C. overnight. After blocking with 2% BSA solution containing PBS-T, 1 μg/mL of the recombinant human proteins VEGF-A121, VEGF-A165, PlGF-1, PlGF-2, PDGF-BB, FGF-2, CXCL-12α and CXCL-12γ were added. 1 μg/mL of BSA served as non-binding protein control. Bound GF or chemokine was detected with biotinylated antibodies for human VEGF-A, PlGF, PDGF-BB, FGF-2, or CXCL-12 (R & D Systems). The antibodies were detected by streptavidin-HRP (R & D Systems). Color development and the absorbance measurement were done as described above.

[10] = molecular target: T3, PlGF-2; assay: as above; set-up: All growth factors (GFs) and chemokines were purchased in their mature forms; purchased PeproTech; host or cells: Escherichia coli; conditions: plate coated with vWF protein, A1 domain or HBD peptide, 1 μg/mL GF
Experimental: as §3

[11] = molecular target: T4, VEGF-A165; assay: as above; conditions: plate coated with vWF protein, A1 domain or HBD peptide, 1 μg/mL GF
Experimental: as §3

[12] = molecular target: T5, PDGF-BB; assay: as above; conditions: plate coated with vWF protein, A1 domain or HBD peptide, 1 μg/mL GF
Experimental: as §3

[13] = molecular target: T6, CXCL-12γ (Homo sapiens, UniProt P48061); assay: as above; conditions: plate coated with vWF protein, A1 domain or HBD peptide, 1 μg/mL GF
T6 construct: All GFs and chemokines were purchased in their mature forms; purchased R & D Systems; host or cells: Escherichia coli
Experimental: as §3

[14] = molecular target: T4, VEGF-A165; assay: vWF binding to recombinant VEGF-A isoforms (ELISA); conditions: plate coated with 50 nM vWF domains, 1 μg/mL VEGF-A, vs BSA
Experimental: (§4) ELISA was performed as previously reported1. In brief, ELISA plates (med binding: Greiner Bio-One) were coated with 50 nM BSA (GE Healthcare), pro-peptide containing recombinant vWF (Sino Biological), plasma-derived vWF (EMD Millipore), recombinant human vWF A1 domain (U-Protein Express), recombinant human vWF A2 domain (R & D systems), recombinant human vWF A3 domain (U-Protein Express), vWF A1 HBD peptide or scrambled/mutated HBD peptide (all peptides were synthesized by Genscript). After blocking with 2% BSA solution containing PBS-T, 1 μg/mL of recombinant human VEGF-A121 (PeproTech), recombinant human VEGF-A145 (R & D Systems), or recombinant human VEGF-A165 (PeproTech) was added. Bound VEGF-A was detected with 1 μg/mL of mouse anti-human VEGF-A antibody (clone: 26503, R & D systems). After 60 min of incubation, horseradish peroxidase (HRP) conjugated goat anti-mouse antibody (1:2000 dilution, Dako) was added and incubated for another 60 min. Color development and the absorbance measurement were done as described above.

[15] = molecular target: T7, VEGF-A145 (Homo sapiens, UniProt P15692); assay: vWF binding to recombinant VEGF-A isoforms (ELISA); conditions: plate coated with 50 nM vWF domains, 1 μg/mL VEGF-A, vs BSA
T7 construct: All GFs and chemokines were purchased in their mature forms; purchased R & D Systems
T7 sequence (P15692 27-171 isoform P15692-6 limits assumed): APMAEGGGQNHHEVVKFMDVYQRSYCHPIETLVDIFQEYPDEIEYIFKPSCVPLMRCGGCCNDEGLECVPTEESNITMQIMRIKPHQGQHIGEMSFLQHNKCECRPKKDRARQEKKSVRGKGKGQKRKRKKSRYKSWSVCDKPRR
Experimental: as §4

T5 sequence (P01127 82-190 limits assumed): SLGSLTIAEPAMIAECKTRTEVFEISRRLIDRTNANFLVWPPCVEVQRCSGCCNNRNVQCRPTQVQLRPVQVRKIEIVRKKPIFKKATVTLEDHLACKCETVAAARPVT
T1 sequence (P48061 22-89 limits assumed): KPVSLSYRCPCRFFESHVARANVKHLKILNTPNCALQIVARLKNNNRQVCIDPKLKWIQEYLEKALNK
T6 sequence (P48061 22-119 isoform P48061-3): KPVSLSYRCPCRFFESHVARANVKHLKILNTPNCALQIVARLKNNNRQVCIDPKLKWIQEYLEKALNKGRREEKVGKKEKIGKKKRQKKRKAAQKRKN
Chain of FGF-2 (P09038 143-288): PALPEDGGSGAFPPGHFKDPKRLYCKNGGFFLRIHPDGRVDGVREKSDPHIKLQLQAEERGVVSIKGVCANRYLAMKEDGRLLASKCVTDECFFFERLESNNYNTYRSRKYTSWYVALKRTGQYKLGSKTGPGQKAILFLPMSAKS
Chain of vWF binding to the GFs (P04275 764-2813 limits assumed): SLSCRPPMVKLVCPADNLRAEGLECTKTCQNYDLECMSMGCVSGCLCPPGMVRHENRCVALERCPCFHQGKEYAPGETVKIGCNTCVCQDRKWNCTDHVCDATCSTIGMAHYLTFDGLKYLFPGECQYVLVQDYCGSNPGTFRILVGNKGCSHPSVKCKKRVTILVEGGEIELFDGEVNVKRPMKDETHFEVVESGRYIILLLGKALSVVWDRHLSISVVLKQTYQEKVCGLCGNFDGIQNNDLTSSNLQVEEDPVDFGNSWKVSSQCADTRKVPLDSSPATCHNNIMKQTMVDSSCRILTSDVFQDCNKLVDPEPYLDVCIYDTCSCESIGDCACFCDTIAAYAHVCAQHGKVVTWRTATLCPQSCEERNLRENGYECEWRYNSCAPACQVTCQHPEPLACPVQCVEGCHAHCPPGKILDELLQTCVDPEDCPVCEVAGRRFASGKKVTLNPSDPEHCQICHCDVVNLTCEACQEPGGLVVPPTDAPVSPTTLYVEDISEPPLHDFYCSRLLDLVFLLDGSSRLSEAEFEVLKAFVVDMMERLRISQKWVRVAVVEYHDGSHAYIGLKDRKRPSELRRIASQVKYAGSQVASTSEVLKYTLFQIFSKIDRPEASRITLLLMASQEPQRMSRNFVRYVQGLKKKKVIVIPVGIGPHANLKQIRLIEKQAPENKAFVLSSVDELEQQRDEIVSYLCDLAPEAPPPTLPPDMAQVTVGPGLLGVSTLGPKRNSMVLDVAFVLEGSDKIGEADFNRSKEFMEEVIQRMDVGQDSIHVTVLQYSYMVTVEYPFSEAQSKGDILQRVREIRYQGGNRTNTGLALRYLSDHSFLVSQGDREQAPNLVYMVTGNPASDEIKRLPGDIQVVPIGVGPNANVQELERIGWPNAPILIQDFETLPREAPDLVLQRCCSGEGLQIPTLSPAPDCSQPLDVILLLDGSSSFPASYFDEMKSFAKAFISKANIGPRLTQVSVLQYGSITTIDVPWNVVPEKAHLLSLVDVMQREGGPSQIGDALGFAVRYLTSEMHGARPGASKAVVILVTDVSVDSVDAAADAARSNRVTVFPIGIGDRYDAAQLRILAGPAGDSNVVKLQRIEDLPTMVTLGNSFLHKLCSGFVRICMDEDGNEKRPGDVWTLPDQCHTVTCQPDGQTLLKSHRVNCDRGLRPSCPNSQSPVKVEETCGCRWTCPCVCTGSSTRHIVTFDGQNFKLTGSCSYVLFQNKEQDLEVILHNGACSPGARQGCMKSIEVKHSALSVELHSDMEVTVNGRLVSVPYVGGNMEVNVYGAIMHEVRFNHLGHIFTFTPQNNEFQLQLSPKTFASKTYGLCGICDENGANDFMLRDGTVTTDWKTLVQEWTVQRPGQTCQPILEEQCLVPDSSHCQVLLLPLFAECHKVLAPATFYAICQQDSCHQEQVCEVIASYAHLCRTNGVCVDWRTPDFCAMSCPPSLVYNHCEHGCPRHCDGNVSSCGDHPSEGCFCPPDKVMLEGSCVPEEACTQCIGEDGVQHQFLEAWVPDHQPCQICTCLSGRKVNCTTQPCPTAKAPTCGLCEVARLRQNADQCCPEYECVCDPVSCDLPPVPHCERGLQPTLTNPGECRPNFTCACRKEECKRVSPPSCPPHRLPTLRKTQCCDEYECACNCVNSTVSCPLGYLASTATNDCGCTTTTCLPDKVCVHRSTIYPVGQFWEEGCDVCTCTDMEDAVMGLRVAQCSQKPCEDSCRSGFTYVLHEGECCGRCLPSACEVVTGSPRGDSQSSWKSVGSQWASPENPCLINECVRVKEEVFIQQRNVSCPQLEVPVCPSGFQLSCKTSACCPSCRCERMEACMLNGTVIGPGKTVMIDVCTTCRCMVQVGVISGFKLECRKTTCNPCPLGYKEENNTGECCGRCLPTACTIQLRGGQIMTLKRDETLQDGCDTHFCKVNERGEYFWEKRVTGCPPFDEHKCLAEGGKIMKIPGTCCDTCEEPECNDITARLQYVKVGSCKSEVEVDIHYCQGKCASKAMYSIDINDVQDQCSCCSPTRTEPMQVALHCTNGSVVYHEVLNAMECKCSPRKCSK

## NQEQVSPLRLVFALGTDGKKLRIKSKEKCNDGK [α2PI1-8-α33043-3067]
[1]
  amount of VEGF-A165 remaining in the wounds: significantly enhanced

## heparin
[2]
  inhibition of GF binding to laminin: inhibited GF binding to laminin
[3]
  inhibition of vWF binding to the GFs: inhibited vWF binding to the GFs

## laminin-332: recombinant human full-length laminin isoform -332 (BioLamina)
[4]
  binding of laminin to CXCL-12a: bound weakly
[5]
  binding of laminin to CXCL-11: bound weakly

## laminin-521: recombinant human full-length laminin isoform -521 (BioLamina)
[6]
  Kd: 12.9 nM
[7]
  Kd: 5.8 nM
[8]
  Kd: 24.2 nM

## recombinant A1 domain: recombinant human vWF A1 domain (U-Protein Express)
[9]
  binding to FGF-2: strong binding
[10]
  binding to PlGF-2: strong binding
[11]
  binding to VEGF-A165: strong binding
[12]
  binding to PDGF-BB: strong binding
[13]
  binding to CXCL-12γ: strong binding
[14]
  binding to VEGF-A165: bound
[15]
  binding to VEGF-A145: bound
